In patent publication US10154881B2, “Methods and compositions for tissue adhesives” (ARIZONA BOARD OF REGENTS FOR AND ON BEHALF OF ARIZONA STATE …, priority 2012, dated 2018):
Where “and” joins values, the source holds several entries; their conditions need not be identical. Equal entries are not always repeated.

Test: Determination of transition temperature (Tt) of ELPs by absorbance at 610 nm
Assay type: physicochemical
Settings: 0.5× PBS; temperature at which absorbance at 610 nm reaches 50% of maximum
Description: The transition temperatures (Tt) of C8ELP and C12ELP were characterized by monitoring the absorbance at 610 nm as a function of temperature with an UV-visible spectrophotometer (Beckman DU530) in 0.5× phosphate-buffered solution (PBS). Briefly, 1 ml of C8ELP (0.5 mg/ml in 0.5×PBS) and 1 ml of C12ELP (1 mg/ml in 0.5×PBS) were prepared and placed in 1.5-ml disposable cuvettes. The temperature of CnELP (n: the number of cysteines in the ELP repeat sequence; n=8/12) was tuned by placing the CnELP-contained cuvette into a Precision 288 Digital Water Bath (Thermo Scientific) and was recalibrated by FLUKE 54 II (Type K) thermometer before absorbance measurement. The absorbance of CnELP was monitored at 610 nm with an UV-visible spectrophotometer (Beckman DU530) immediately after withdrawing the cuvette out of the water bath. The Tt is defined as the temperature at which the absorbance of CnELP solution reaches 50% of the maximum value. The temperature response of the C8ELP and C12ELP indicated Tt values of 31.3 and 30.5° C., respectively.

Row | Molecule | Transition temperature (Tt)
1 | C12ELP: Elastin-like polypeptide with 12 cysteine residues, SEQ ID NO:2, expressed in E. coli (protein, elastin-like polypeptide) MVSACRGPGVGVPGVGVPGVGVPGVGVPGVGVPGVGVPGVGVPGVGVPGVGVPGVGVPGVGVPGVGVPGVGVPGVGVPGVGVPGVGVPGVGVPGVGVPGVGVPGVGVPGVGVPGVGVPGVGVPGVGVPGVGVPGVGVPGVGVPGVGVPGVGVPGVGVPGVGVPGVGVPGVGVPGVGVPGVGVPGVGVPGVGVPGVGVPGVGVPGVGVPG | 30.4 °C and 30.5 °C
2 | C8ELP: Elastin-like polypeptide with 8 cysteine residues, SEQ ID NO:1, expressed in E. coli (protein, elastin-like polypeptide) MVSACRGPGVGVPGVGVPGVGVPGVGVPGVGVPGVGVPGVGVPGVGVPGVGVPGVGVPGVGVPGVGVPGVGVPGVGVPGVGVPGVGVPGVGVPGVGVPGVGVPGVGVPGVGVPGVGVPGVGVPGVGVPGVGVPGVGVPGVGVPGVGVPGVGVPGVGVPGVGVPGVGVPGVGVPGVGVPGVGVPGVGVPGVGVPGVGVPGVGVPGVGVPGVGVPGVGVPGVGVPGCGVPGVGVPGVGVPGVGVPGVGVPGCGVPGVGVPGVGVPGVGVPGVGVPGCGVPGVGVPGVGVPGVGVPGVGVPGCGVPGVGVPGVGVPGVGVPGVGVPGCGVPGVGVPGVGVPGVGVPGVGVPGCGVPGVGVPGVGVPGVGVPGVGVPGCGVPGVGVPGVGVPGVGVPGVGVPGCGVPGVGVPGWP | 31.3 °C
